The term Kd denotes the constant that tells how readily two partners part at equilibrium.

Kd data for 1 sequence are collected here from article PMC12324679.

For series [1], the system named is PuPuf4 (Pythium ultimum). Description: MST. The conditions noted are these: MST: 50 mM Tris pH 7.5, 150 mM NaCl, 10 mM MgCl2, 0.05% Tween 20, 25 C; EMSA: Beyotime EMSA/Gel-Shift Binding Buffer, 50 ng RNA, 25 C 30 min, 1% agarose gel.
Series [2] has as its system PuPuf4 R111A F147A K368A (Pythium ultimum). Description: MST. The conditions noted are these: MST: 50 mM Tris pH 7.5, 150 mM NaCl, 10 mM MgCl2, 0.05% Tween 20, 25 C; EMSA: Beyotime EMSA/Gel-Shift Binding Buffer, 50 ng RNA, 25 C 30 min, 1% agarose gel. A general note: Mobility shift assays separate free from complexed probe on a gel.

On to “GCCCAGUGCUCUGAAUGUCAAAGUGAAGAGAUUCACCAAGCGGCGGGUAAACGCG [H68 rRNA]”, for which the Kd in series [1] stood at 240 nM; in series [2], 620 nM.
